Experimental data as given in publication PMC2944810.

Target: GFP:2B (Grapevine fanleaf virus movement protein 2B fused to EGFP) (Grapevine fanleaf virus)
Test: FRET or BRET; FRET-FLIM in living N. benthamiana leaf epidermal cells after transient co-expression by agro-infiltration; GFP fusion of the movement protein as donor, RFP fusion as acceptor; fluorescence lifetime of the donor measured at tubules or plasmodesmata

Q: “GFP:2B (Grapevine fanleaf virus movement protein 2B fused to EGFP) (natural protein)” was tested. Which mean FRET (percent) did it give?
A: The mean FRET (percent) was 24%.
